Drawing on patent US7449185 (Daiichi Sankyo, dated 2008), this text covers Kd for 1 molecule.

The target of test [1] is T1, osteoclastogenesis inhibitory factor (OCIF), recombinant, monomer or dimer type not specified at the place of … (human, UniProt O00300 22-401, 125I on tyrosine residues where used as 125I-labeled OCIF (Iodogen method)).
T1 construct: Secreted protein, about 60 kDa as monomer and 120 kDa as dimer; also called recombinant OCIF
T1 sequence (looked up): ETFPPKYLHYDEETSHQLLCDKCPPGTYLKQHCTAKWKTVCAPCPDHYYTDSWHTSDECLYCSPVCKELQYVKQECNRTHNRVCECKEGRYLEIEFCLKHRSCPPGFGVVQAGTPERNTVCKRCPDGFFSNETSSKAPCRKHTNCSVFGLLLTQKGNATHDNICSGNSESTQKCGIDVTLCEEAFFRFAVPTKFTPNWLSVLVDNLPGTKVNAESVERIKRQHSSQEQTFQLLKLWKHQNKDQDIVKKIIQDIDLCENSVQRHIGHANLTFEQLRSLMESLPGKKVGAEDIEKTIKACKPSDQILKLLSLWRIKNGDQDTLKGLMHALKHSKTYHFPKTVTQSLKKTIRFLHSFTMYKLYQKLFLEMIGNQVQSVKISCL
Briefly: Scatchard plot of labeled OCIF on cell membrane (told in the general description).

Test [2] concerns the target T2, OCIF, monomer type (60 kDa) (human, UniProt O00300 22-401, limits assumed, 125I on tyrosine residues (Iodogen method)).
T2 construct: Monomer type of rOCIF, 60 kDa; also called monomer-form OCIF
T2 sequence (looked up): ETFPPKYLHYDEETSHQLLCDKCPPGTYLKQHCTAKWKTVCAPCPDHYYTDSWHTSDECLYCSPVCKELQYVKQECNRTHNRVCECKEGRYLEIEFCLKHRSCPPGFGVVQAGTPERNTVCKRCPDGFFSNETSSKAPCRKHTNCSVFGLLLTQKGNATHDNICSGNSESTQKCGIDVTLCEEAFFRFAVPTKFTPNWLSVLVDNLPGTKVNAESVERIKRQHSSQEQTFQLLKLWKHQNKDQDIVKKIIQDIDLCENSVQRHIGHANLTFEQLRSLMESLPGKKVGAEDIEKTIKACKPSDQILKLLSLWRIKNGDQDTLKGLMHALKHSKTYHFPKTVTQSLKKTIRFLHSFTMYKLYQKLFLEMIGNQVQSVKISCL
Briefly: Scatchard plot of 125I-OCIF binding to ST2 cells (passage about 10) cultured with vitamin D3 and dexamethasone. The protocol:
Solutions for measuring non-specific binding were prepared by further adding 400-fold concentration of monomer-form OCIF to these solutions. […] The results were subjected to Scatchard Plot analysis to determine the dissociation constant of OCIF and OCIF-binding protein and the number (site) of OCIF-binding protein per a ST2 cell. […] Based on the finding in Example 5(1) that osteoclasts-formation supported by the ST2 cells with passage number about 40 was more extensive than that with passage number about 10, the number (the site) of the protein of the present invention expressed on the ST2 cell with a passage number about 40 was assessed.

B1: natural OCIF-binding protein (mouse OBM) on mouse osteoblastic stromal ST2 cells cultured with active-form vitamin D3 and dexamethasone (ligand)
chain: MRRASRDYGKYLRSSEEMGSGPGVPHEGPLHPAPSAPAPAPPPAASRSMFLALLGLGLGQVVCSIALFLYFRAQMDPNRISEDSTHCFYRILRLHENAGLQDSTLESEDTLPDSCRRMKQAFQGAVQKELQHIVGPQRFSGAPAMMEGSWLDVAQRGKPEAQPFAHLTINAASIPSGSHKVTLSSWYHDRGWAKISNMTLSNGKLRVNQDGFYYLYANICFRHHETSGSVPTDYLQLMVYVVKTSIKIPSSHNLMKGGSTKNWSGNSEFHFYSINVGGFFKLRAGEEISIQVSNPSLLDPDQDATYFGAFKVQDID
notes: also called the protein of the present invention; OBM on ST2 cells
Take B1: the values for the Kd in test [1] and in test [2] were 0.1 to 0.5 nM and 0.28 nM, respectively.
